# Assay results taken from PMC12024540, “Peptide-Based Regulation of TNF-α-Mediated Cytotoxicity” (Biomolecules, 2025).
# Test system: caspase-3 and caspase-7 activities in L929 cells
# Test: Caspase-Glo 3/7 apoptosis assay on TNF-α-stimulated L929 cells
# Format: cell-based, mouse
# Conditions: at 10 nM and 100 nM with TNF-α 1 ng/mL
# Protocol: Apoptosis was detected by measuring caspase-3 and caspase-7 activities with the Promega Caspase-Glo 3/7 Assay Kit. A total of 1.5 × 10^4 cells were seeded onto opaque 96-well tissue culture plates. After 24 ± 2 h of incubation, cells were stimulated with the same concentration of actinomycin D and TNF-α with different peptide concentrations. After 4 h of incubation in 5% CO2 at 37 °C, freshly prepared caspase 3/7 reagent was added to each well, followed by incubation for 1 h at room temperature. Luminescence was measured using a plate reader (CLARIOstar Plus, BMG Labtech, Ortenberg, Germany). Fold change was calculated from the ratio of luminescence of cell control to that of TNF-α-treated cells.
molecule,measurement,value
"TNFR1: Human TNFR1 (soluble) recombinant protein applied with TNF-α in the caspase 3/7 assay (protein, fluorescent label from the Monolith Protein Labeling Kit RED-NHS 2nd Generation (labelled target in MST), Human TNFR1 (soluble) recombinant protein applied with TNF-α in the caspase 3/7 assay) SVCPQGKYIHPQNNSICCTKCHKGTYLYNDCPGPGQDTDCRECESGSFTASENHLRHCLSCSKCRKEMGQVEISSCTVDRDTVCGCRKNQYRHYWSENLFQCFNCSLCLNGTVHLSCQEKQNTVCTCHAGFFLRENECVS",effect on caspase 3/7 activity,significantly reduced caspase 3/7 activity
